Results taken from ChEMBL document CHEMBL1121725, “Interaction of 1-(5-phospho-beta-D-arabinofuranosyl)-5-substituted-uracils with thymidylate synthetase: mechanism-based inhibition by 1-(5-phospho-beta-D-arabinosyl)-5-fluorouracil” (J Med Chem, 1981).

Target: thymidylate synthase (Lactobacillus casei)
Assay: Compound was evaluated for the inhibition of dTMP synthetase with respect to dUMP.

B1: Thymidylate synthase (Escherichia coli), C3SWJ7 (protein)
chain: MKQYLELMQKVLDEGTQKNDRTGTGTLSIFGHQMRFNLQDGFPLVTTKRCHLRSIIHELLWFLQGDTNIAYLHENNVTIWDEWADENGDLGPVYGKQWRAWPTPDGRHIDQITTVLNQLKNDPDSRRIIVSAWNVGELDKMALAPCHAFFQFYVADGKLSCQLYQRSCDVFLGLPFNIASYALLVHMMAQQCDLEVGDFVWIGGDTHLYSNHMDQTHLQLSREPRPLPKLIIKRKPESIFDYRFEDFEIEGYDPHPGIKAPVAI
B1 was tested, and the Km was 2 µM.
